# Test results from patent US20120122830A1 (King Faisal Specialist Hospital & Research Centre, priority 2008, published 2012).
# Like-named read-outs stand apart in the source and are kept apart here.
# Columns and labels:
# B104 cells [1] = assay: Necrotic effect of fibrillary form of human Aβ1-42 peptide on B104 cells; format: cell-based, Rat
# Method: (§1) Rat B104 neuroblastoma is chosen as the cell culture model due to its neuronal phenotype when grown in serum free medium (Schubert et al. Nature 1974; 249: 224-27). B104 cells are routinely grown in flasks of 75 cm^2 with complete culture medium containing Dulbecco's Modified Eagle Medium (DMEM) supplemented with 2 mM L-glutamine, penicillin G (50 U/ml), streptomycin sulfate (50 μg/ml), 10% fetal calf serum, and 5% horse serum. They are sub-cultured every week and the culture medium is changed every three days. Cultures are maintained at 37° C. in a humidified incubator in 90% air and 10% CO2 atmosphere. For the experiments, the cells are plated at the required density, in serum complete medium for 24 H and then the medium is replaced with a serum free one containing or not the desired treatment.
# (§2) Aβ1-42 is obtained from Bachem and prepared in fibril form known to mediate neurotoxicity (Lorenzo et al. Proc Natl Acad Sci USA 1994; 91:12243-47). Aβ1-42 fibrils are produced by dissolving the peptide in double distilled water (ddH2O) to 10 µg/μl, followed by incubation under agitation (300-400 rpm) for one week at 37° C.
# Flow cytometry is utilized to look for the percentage of apoptosis or necrosis that reflects the neurotoxic effect of Aβ1-42 as well as the neuroprotective effect of neurosteroids by staining cells with annexin V that has affinity to phosphatidyl serine (PS) (Van Genderen et al. 2006). In normal viable cells, PS is located on the cytoplasmic side of the cell membrane. However, in apoptotic cells, PS is translocated from the inner to the outer leaflets of the plasma membrane where annexin V could bind to PS. Moreover, annexin V can pass through the compromised membrane of necrotic cells and bind to PS in the anterior of the cell (Van Genderen et al. Nat Protoc 2006; 1:363-67).
# Cells are seeded in 6 well plates at the required density and grown for 24H. They are then treated according to two procedures: either with specific steroids and then Aβ1-42 or with Aβ1-42 followed by steroids. A kinetic study is performed at 6, 12 or 24 H depending on the concentration of the peptide.
# For flow cytometry analysis, cells are washed with PBS and harvested by trypsinization. After centrifugation and resuspension in annexin binding buffer and incubation for 15 min with 5-25 μl of annexin V conjugate, cells are washed with annexin binding buffer and examined by flow cytometry. Data is examined by using appropriate software, and scattergrams are analyzed.
# B104 cells [2] = assay: Neuroprotection by PREGS against fibrillary human Aβ1-42 peptide toxicity on B104 cells; format: cell-based, Rat; set-up: protection against Aβ1-42 peptide-induced toxicity: dose or concentration left out as unconfirmed
# Method: as §1
# as §2, with “C. […]” for “C.”
# For flow cytometry analysis, cells are washed with PBS and harvested by trypsinization. […] Data is examined by using appropriate software, and scattergrams are analyzed.
# B104 cells [3] = assay: Neurotrophic activity: neuronal outgrowth in B104 cells cultured at low density; format: cell-based, Rat; conditions: 5 μM PREGS during 7 days, compared to control cells
# Method: as §1
# For this purpose, […] acid (95:5), washed and incubated for 30 min in PBS containing 2% bovine serum albumin (BSA) to block non specific binding. Immunostaining of B104 cells is performed for 2 H at room temperature (RT) with appropriate dilutions of primary antibodies. Then, cells are rinsed and incubated with sheep anti-mouse IgG antibodies (Sigma) in PBS/BSA, for 2 H at RT. After being washed, the immunostained cells are examined under microscope (a Leica or Zeiss Axiovert 135M microequipped with an epifluorescence system or optical microscope Nikon Labophot 2).
# [4] = rats and mice; Akwa et al. 2001; cited from earlier work
molecule,measurement,setting,value
"Aβ1-42: fibrillary form of human β-amyloid peptide Aβ1-42, obtained from Bachem","necrosis, dose dependence",B104 cells [1],significant dose-dependent necrosis
same,necrotic effect,"B104 cells [1]; B104 cells, 10 μM human Aβ1-42 peptide, 6 h, compared to control cells",considerable necrotic effect
same,time after treatment at which necrotic effect was demonstrated,"B104 cells [1]; B104 cells, fAβ1-42",≤ 6 H
same,"necrosis, dose dependence","B104 cells [1]; B104 cells, increasing from 5 μM to 20 μM of fAβ1-42 peptide",significant dose-dependent necrosis
pregnenolone sulfate [PREGS],protection against fAβ1-42 peptide-induced toxicity,"B104 cells [2]; PREGS at 20 μM, 20 μM fAβ1-42 peptide, observed at 24H, maintained until 96H",able to protect
same,protection against Aβ1-42 peptide-induced toxicity,"B104 cells [2]; observed at 24 h, maintained until 96 h",able to protect
same,neuronal cell outgrowth,B104 cells [3],Striking neuronal cell outgrowth
CC(=O)[C@@H]1CC[C@@H]2[C@H]3CC=C4C[C@H](OS(=O)(=O)O)CC[C@@]4(C)[C@@H]3CC[C@]21C [ent-PREGS],potency in stimulating memory relative to natural PREGS,[4],more potent
